Measurements taken from the Human Domainome abundance scans (Beltran et al. 2025).
± gives the uncertainty stated by the source.

B1: Cytoplasmic polyadenylation element-binding protein 2, residues 513 to 575; numbered along this chain, Q7Z5Q1 (parent)
chain: KRVEVKPYVLDDQMCDECQGARCGGKFAPFFCANVTCLQYYCEFCWANIHSRAGREFHKPLVK

Variants of: B1
Experiment: abundance fitness (aPCA) (normalised: wild type 0, dead -1); higher = more abundant; growth selection in yeast, the domain comes from the species named
Conditions: Homo sapiens

Variant | abundance fitness
KRVEVKPYVLDDQMCDECQGARCGGKFAPFFCANVTCLQYYCEFCWANIHSRAGREGHKPLVK | 0.166 ± 0.035
KRVEVKPYVLDDQMCDECQGARCGGKFAPFFCANVTCLQYYCEFCWANIHSRAGREHHKPLVK | 0.027 ± 0.044
KRVEPKPYVLDDQMCDECQGARCGGKFAPFFCANVTCLQYYCEFCWANIHSRAGREFHKPLVK | 0.167 ± 0.053
KRVEVKPYVLDDQMCDECQGARCGGKFAPFFCANVTCLQYYCEFCWANIHARAGREFHKPLVK | 0.045 ± 0.057
KRVEVKPYVLDDQMCDECQGARCGGKFAPFFCANVTCLQYYCEFCWANIHLRAGREFHKPLVK | -0.021 ± 0.041
KRVEVKPYVLDDQMCDECQGARCGGKFAPFKCANVTCLQYYCEFCWANIHSRAGREFHKPLVK | -0.332 ± 0.09
KRVEVKPYVLDDQMCDECQGARCGGTFAPFFCANVTCLQYYCEFCWANIHSRAGREFHKPLVK | -0.073 ± 0.059
KRVEVKPYVLDDQMCDECQGARCGGKFAPFFCANVTCLQYYCEFCWANIHSRAGPEFHKPLVK | -0.463 ± 0.066
KRVEVKPYVLDDQMCDECQGARCGGKFAPFFCANVTCLQYYCEFCWANIHSRAGCEFHKPLVK | -0.194 ± 0.09
KRVEVKPYVLDDQMCDECQHARCGGKFAPFFCANVTCLQYYCEFCWANIHSRAGREFHKPLVK | -0.509 ± 0.086
KRVEVKPYVLDDQMCDECQIARCGGKFAPFFCANVTCLQYYCEFCWANIHSRAGREFHKPLVK | -0.841 ± 0.15
KRVEVKPYVLFDQMCDECQGARCGGKFAPFFCANVTCLQYYCEFCWANIHSRAGREFHKPLVK | -0.149 ± 0.085
KRVEVKPYVEDDQMCDECQGARCGGKFAPFFCANVTCLQYYCEFCWANIHSRAGREFHKPLVK | 0.076 ± 0.047
KRVEVKPYVHDDQMCDECQGARCGGKFAPFFCANVTCLQYYCEFCWANIHSRAGREFHKPLVK | -0.227 ± 0.18
KRVEVKPYVWDDQMCDECQGARCGGKFAPFFCANVTCLQYYCEFCWANIHSRAGREFHKPLVK | 0.056 ± 0.057
KRVEVKPYVLDDQMCDECQGARCGWKFAPFFCANVTCLQYYCEFCWANIHSRAGREFHKPLVK | -0.075 ± 0.053
KRVEVKPYVLDDQMCDECQGARCGPKFAPFFCANVTCLQYYCEFCWANIHSRAGREFHKPLVK | -0.321 ± 0.06
KRVEVKPYVLDDQMCDECQGARCGDKFAPFFCANVTCLQYYCEFCWANIHSRAGREFHKPLVK | -0.082 ± 0.059
KRVEVKPYVLDDQMCDECQGARCGLKFAPFFCANVTCLQYYCEFCWANIHSRAGREFHKPLVK | -0.207 ± 0.039
KRVEVKPYVLDDQMCDECQGARCGKKFAPFFCANVTCLQYYCEFCWANIHSRAGREFHKPLVK | 0.016 ± 0.033
KRVEVKPYVLDDQMCDECQGARCGCKFAPFFCANVTCLQYYCEFCWANIHSRAGREFHKPLVK | -0.349 ± 0.086
KRVEVKPYVLDDQMCDECQGARCGIKFAPFFCANVTCLQYYCEFCWANIHSRAGREFHKPLVK | -0.538 ± 0.087

Variant | abundance fitness
KRVEVKPYVLDDQMCDECQGARCGGKFAPFFCANVTCLQYYCEFCWANIHSRAGREFHKFLVK | -0.937 ± 0.21
KRVEVKPYVLDDQMCDECQGARCGGKFAPFFCANVTCLQYYCEFCWANIHSRAGREFPKPLVK | -0.51 ± 0.1
KRVEVKPKVLDDQMCDECQGARCGGKFAPFFCANVTCLQYYCEFCWANIHSRAGREFHKPLVK | 0.121 ± 0.058
KRVEVKPTVLDDQMCDECQGARCGGKFAPFFCANVTCLQYYCEFCWANIHSRAGREFHKPLVK | -0.026 ± 0.059
KRVEVKPCVLDDQMCDECQGARCGGKFAPFFCANVTCLQYYCEFCWANIHSRAGREFHKPLVK | -0.115 ± 0.08
KRVEVKPYVLDDQMCDECQGARCGGKFAPFFCANVTCLQYYCEFCWLNIHSRAGREFHKPLVK | -0.18 ± 0.047
KRVEVKPYVLDDQMCDECQGARCGGKFAPFFCANVTCLQYYCEFCWARIHSRAGREFHKPLVK | 0.029 ± 0.045
KRVEVKPYVLDDQMCDECQGARCGGKFAPFFCANVTCLQYYCEFCWATIHSRAGREFHKPLVK | 0.024 ± 0.052
KRVEVKPYVLDDQMCDECQGARCGGKFAPFFCANVTCLQYYCEFCWAFIHSRAGREFHKPLVK | -0.071 ± 0.047
KRVEVKPYVLDDQMCDECQGARCGGKFAPFFCANVTCLQYYCEFCWAYIHSRAGREFHKPLVK | -0.112 ± 0.05
KRVEVKPYVLDDQMCDECQGARCGGKFAPFFMANVTCLQYYCEFCWANIHSRAGREFHKPLVK | -0.793 ± 0.074
KRVEVKPYVLDDQMCDECQGARCGGKFAPFFCDNVTCLQYYCEFCWANIHSRAGREFHKPLVK | 0.12 ± 0.063
KRVEVKPYVLDDQMCDECQGARCGGKFAPFFCVNVTCLQYYCEFCWANIHSRAGREFHKPLVK | -0.124 ± 0.044
KRVEVKPYVLDDQMCDECQGARCGGKFAPFFCHNVTCLQYYCEFCWANIHSRAGREFHKPLVK | -0.177 ± 0.1
KRVEVKPYVLDDQMCDWCQGARCGGKFAPFFCANVTCLQYYCEFCWANIHSRAGREFHKPLVK | -0.25 ± 0.051
KRVEVKPYVLDDQMCDLCQGARCGGKFAPFFCANVTCLQYYCEFCWANIHSRAGREFHKPLVK | -0.117 ± 0.043
KRVEVKPYVLDDQMCDDCQGARCGGKFAPFFCANVTCLQYYCEFCWANIHSRAGREFHKPLVK | -0.136 ± 0.06
KRVEVKPYVLDDQMCDECQGARCGGKFHPFFCANVTCLQYYCEFCWANIHSRAGREFHKPLVK | -0.495 ± 0.097
KRVEVKPYVLDDQMCDECQGARCGGKFAPFFCANVTCLQVYCEFCWANIHSRAGREFHKPLVK | -0.399 ± 0.047
KRVEVKPYPLDDQMCDECQGARCGGKFAPFFCANVTCLQYYCEFCWANIHSRAGREFHKPLVK | -0.055 ± 0.052
KRVEVKPYQLDDQMCDECQGARCGGKFAPFFCANVTCLQYYCEFCWANIHSRAGREFHKPLVK | 0.096 ± 0.057
